T1: Cynomolgus PSGL-1(ECD)-HIS (cynomolgus macaque)
T1 construct: also called Cyno PSGL1-His
T1 chain: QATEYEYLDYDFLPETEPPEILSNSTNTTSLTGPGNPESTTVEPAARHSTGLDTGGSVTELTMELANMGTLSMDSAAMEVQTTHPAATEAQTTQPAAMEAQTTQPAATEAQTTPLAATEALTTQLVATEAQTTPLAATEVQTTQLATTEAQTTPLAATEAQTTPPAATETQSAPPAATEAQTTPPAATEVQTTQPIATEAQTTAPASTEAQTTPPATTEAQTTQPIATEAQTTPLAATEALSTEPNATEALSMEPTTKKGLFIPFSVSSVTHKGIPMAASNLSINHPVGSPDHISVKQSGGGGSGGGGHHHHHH

T2: Recombinant human PSGL-1(ECD)-hFc1 (R&D Systems, Cat. 3345-PS) (human, UniProt Q14242 42-305)
T2 construct: Bought; Gln42-Val295 counted on AAC50061; also called PSGL-1-Fc; PSGL-1-hFc1 chimera; not shown: human IgG1 Fc, Pro100-Lys330
T2 sequence: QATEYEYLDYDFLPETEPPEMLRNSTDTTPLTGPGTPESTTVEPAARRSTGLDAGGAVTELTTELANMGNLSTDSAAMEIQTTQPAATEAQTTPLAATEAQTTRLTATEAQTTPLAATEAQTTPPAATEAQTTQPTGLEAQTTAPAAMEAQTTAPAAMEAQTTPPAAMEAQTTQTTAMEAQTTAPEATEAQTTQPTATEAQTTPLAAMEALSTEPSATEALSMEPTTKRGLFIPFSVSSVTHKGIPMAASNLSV

T3: Biotin Y46,48,51(SO3) PSGL-1(42-62) peptide (human, sulfotyrosine at Y46, Y48 and Y51; C-terminal Lys-biotin)
T3 construct: also called fully sulfated N-terminal PSGL-1 peptide
T3 peptide: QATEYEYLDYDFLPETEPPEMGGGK

T4: Biotin PSGL-1(42-62) peptide, unmodified (human, C-terminal Lys-biotin)
T4 construct: Residues 42-62 followed by GGGK-biotin; also called WT; wild-type
T4 peptide: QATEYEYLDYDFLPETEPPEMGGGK

T5: Scrambled Y46,48,51(SO3) PSGL-1(42-62) biotin peptide (sulfotyrosine at peptide positions 5, 7 and 10; C-terminal Lys-biotin)
T5 construct: also called scrambled sulfated peptide: biotin
T5 peptide: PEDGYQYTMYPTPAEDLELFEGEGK

T6: Biotin sY51 PSGL-1(42-62) peptide (human, sulfotyrosine at Y51; C-terminal Lys-biotin)
T6 construct: also called Y51(SO3) PSGL-1(42-62)
T6 peptide: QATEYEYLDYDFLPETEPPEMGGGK

B1: 18F02 (antibody, V domains shown)
VH: QVQLQQPGAELVKPGASVKLSCKASGYTFTSYWMHWVKQRPGQGLEWIGMIHPNSGRTNYNEKFKSKATLTVDKSSSTAYMQLSSLTSEDSAVYYCARSDYWGQGTTLTVSS
VL: DIVMTQAAFSNPVTLGTSASISCRSSKSLLHSDGITYLYWFLQRPGQSPQLLIYRMSNLASGVPDRFSGSGSGTDFTLRISRVEAEDVGVYYCAQMLEFPRTFGGGTKLEIK
notes: From mouse immunisation; only variable domains given
B2: 16E17 (antibody, V domains shown)
VH: QIQLVQSGPELKKPGETVKISCKASGYAFTTYGMSWVKQAPGKGLKWMGWINTYSGVPKYADDFKGRFAFSLETSASTAYLHINNLKNEDTATYFCGRHYYGSSYFDYWGQGTTLTVSS
VL: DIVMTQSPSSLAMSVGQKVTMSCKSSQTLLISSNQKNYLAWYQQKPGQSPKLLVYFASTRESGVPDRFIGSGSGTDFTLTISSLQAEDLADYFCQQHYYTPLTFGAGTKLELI
notes: as for B1
B3: 19L04 (antibody, IgG4, V domains shown)
VH: B2 VH with A28T, K59T, H82Q, N88I, G97A, S104H
VL: DIMMTQSPSSLAMSVGQKVTLRCKSSQSLLNSSNQKNYLAWYQQKPGQSPKLLVYFASTRESGVPVRFIGSGSGTDFTLTISSMQAEDLADYFCQQHYFSPLTFGAGTKLELK
notes: as for B1
B4: 19N05 (antibody, V domains shown)
VH: B2 VH with A28T, K59T, Y60F, H82Q, Y94F, G97A, H99N, S103N, S104H
VL: DVQITQSPSYLAASPGETISINCRASNNINKYLAWYQEKPGKTNKLLIYSGSTLQSGIPSRFSGSGSGTDFTLTISSLEPEDFAMYHCQQHNYYPLTFGAGTKLELK
notes: as for B1
B5: 19I01 (antibody, V domains shown)
VH: EVQLVESGGGLVKPGGSRKLSCAASGFTFSDYGMHWVRQAPEKGLEWVAYISSGSSTIYYADTVKGRFTISRDNAKNTLFLQMTSLRSEDTAMYYCARGVDGYWGQGTTLTVSS
VL: DVVMTQTPLSLPVSLGDQASISCRSSQSLVHSNGNTYLHWYLQKPGQSPKFLIYKVSNRFSGVPDRFSGSGSGTDFTLKISRVEAEDLGVYFCSQTTHVPLTFGAGTKLELK
notes: From mouse immunisation; only variable domains given; also called 19101
B6: 18K07 (antibody, V domains shown)
VH: QIQLVQSGPELKKPGETVKISCEASGYTFTTYGMNWVKQAPGKGLKWMGWINTYSGVPTYADDFQGRFAFSVETSATTAYLQINNLKNEDAATYFCARSDDTYYGFAYWGQGTLVTVSA
VL: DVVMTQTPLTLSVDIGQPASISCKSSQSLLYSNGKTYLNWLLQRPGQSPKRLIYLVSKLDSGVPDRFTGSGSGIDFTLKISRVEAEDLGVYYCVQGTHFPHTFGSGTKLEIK
notes: as for B1
B7: 2E12 (antibody, V domains shown)
VH: QVQLQQSGAELARPGASVKLSCKASGYTFTNYGLNWVKQRTGQGLEWIGEIYPRSGNTYYNEKFKGKATLTADKSSSTAYMQLSSLTSEDSAVYFCATEGAYWGQGTLVTVSA
VL: DIVMTQTPLTLSVTIGQPASISCKSSQSLLHGNGKTYLNWLLQRPGQSPKLLIYLVSKLESGIPDRFSGSGSGTDFTLEISRVEAEDLGIYYCLQSTHFPRTFGGGTKLEIK
notes: Mouse hybridoma mAb; only variable domains given
B8: 16L15 (antibody, V domains shown)
VH: DVKLVESGGGLVKLGGSLKLSCAASGFTFSSYYMSWVRQTPEKRLEWVATISNGGGSTYYPDSVKDRFTISRDNAKNTLYLQMSSLNSEDTAVYYCAKPLYYSNPWFAYWGQGTLVTVSA
VL: DVLLTQTPLSLPVSLGDQASISCRSSQSIVHSNGNTYLEWYLQKPGQSPKLLIYKVSNRFSGVPDRFSGSGSGTDFTLKISRVEAEDLGVYYCFQGSHVPRTFGGGTKLEIK
notes: as for B1
B9: 5E12 (antibody, V domains shown)
VH: EIQLQQSGAELVRPGASVKLSCTASGFNIKDDYIHWVKQRPEQGLEWIGRIDPANGNTKSAPKFQDKATITADTSSNTAYLHLSSLTSEDTAVYYCSIRFAYWGQGTLVTVSA
VL: DVVMTQTPLSLSVSLGDQASISCRSSQSLVYRNGDTYLHWFLQKPGQSPKLLIYKVSNRFSGVPDRFSGSGSGTDFTLKISRVEAEDLGIYFCSQNTHVPYTFGGGTKLEIK
notes: as for B7

Substitutions are numbered along the chain they refer to.

The first experiment concerns the target T1, Cynomolgus PSGL-1(ECD)-HIS. Nature of the experiment: ELISA, plate cyno PSGL-1(ECD)-HIS. Here is the method:
Antibody binding to plate-immobilized cyno PSGL-1(ECD) was determined either at one concentration (20 nM) or by generating full antibody binding curves (0.003-200 nM). A typical ELISA was performed by overnight coating at 4° C. with 3 ug/mL/25 ul per well of recombinant cyno PSGL-1(ECD) protein in PBS, pH 7.4, in high binding half-well plates (Corning Cat. #3690). […] Anti-PSGL-1 IgG in assay buffer (blocking buffer containing 0.05% tween 20) was added into test and control wells (20 nM/25 ul/well) and the plate incubated for 45 min at 37° C. […] The plate was incubated for 45 min at 37° C., and mAb bound to plate-immobilized target determined at A450 nm using HRP substrate (3,3′,5,5′-tetramethylbenzidine (TMB)). For each antibody, duplicate values were averaged and assay background subtracted.
Regarding B1, the half-maximal effective concentration (EC50) is 0.51 nM.

B2: the EC50 is 0.53 nM.

B3 returned an EC50 of 1.11 nM.

B4 came in with an EC50 of 0.95 nM.

Take B5: the midpoint of the response, the EC50, lay at 0.68 nM.

Take B6: the response was half-maximal at 8.49 nM (EC50).

Take B7: a half-maximal effect (EC50) was put at 0.58 nM.

In the case of B8, the EC50 was 0.53 nM.

Turning to B9, the midpoint of the response, the EC50, lay at 0.59 nM.

A further experiment addresses T2, Recombinant human PSGL-1(ECD)-hFc1 (R&D …). Kind of experiment: ELISA, plate-bound target.
Regarding B1, the concentration giving a half-maximal response (EC50) is 0.57 nM.

In the case of B5, the concentration for a half-maximal effect (EC50) was determined as 1.23 nM.

In the case of B7, the EC50 turned out to be 0.6 nM.

Take B8: the EC50 worked out at 0.96 nM.

As for B9, the EC50 stood at 0.51 nM.

The next experiment addresses T3, Biotin Y46,48,51(SO3) PSGL-1(42-62) …. Kind of experiment: ELISA, plate-bound target.
For the molecule B1, the EC50 amounted to 0.45 nM.

For the molecule B5, the midpoint of the response, the EC50, lay at 0.92 nM.

On to B7, for which the EC50 came to 1.21 nM.

Take B8: the concentration giving a half-maximal response (EC50) came to 0.92 nM.

In turn, B9 displayed an EC50 of 0.92 nM.

A further experiment concerns the target T4, Biotin PSGL-1(42-62) peptide, unmodified. Kind of experiment: ELISA, plate-bound target.
Molecule B1 came in with an EC50 of 0.68 nM.

Regarding B5, it took 0.92 nM to reach a half-maximal effect (EC50).

B7 yielded a 50% effective concentration (EC50) of 1.02 nM.

B8 displayed an EC50 of 0.89 nM.

B9 showed an EC50 of 0.86 nM.

The next experiment concerns the target T5, Scrambled Y46,48,51(SO3) PSGL-1(42-62) …. Kind of experiment: ELISA, immobilized biotin peptide. Put shortly: (§1)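 In this ELISA, half-well high binding plates (Corning Cat. #3690) received 3 ug/mL/25 ul per well of biotin-tagged PSGL-1 peptides covering residues 42 to 62, diluted in PBS, pH 7.4, and coated overnight at 4° C. Duplicate readings for each antibody were averaged and the average assay background was subtracted. PSGL-1 protein or peptide was the positive control.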
Turning to B1, the binding result is “no binding”.

B5 displayed a concentration for a half-maximal effect (EC50) of 198 nM.

B7: the midpoint of the response, the EC50, lay at 30 nM.

On to B8, for which the binding result was “no binding”.

Molecule B9 had an EC50 of 32.3 nM.

The target of the next experiment is T3, Biotin Y46,48,51(SO3) PSGL-1(42-62) …. Kind of experiment: ELISA, immobilized biotin peptide. An outline of the steps: as §1
In the case of B1, a half-maximal response (EC50) required 0.658 nM.

In turn, B5 came in with a half-maximal effective concentration (EC50) of 0.844 nM.

Molecule B7 showed a concentration for a half-maximal effect (EC50) of 0.87 nM.

In turn, B8 registered an EC50 of 0.699 nM.

In turn, B9 displayed an EC50 of 0.633 nM.

For a further experiment, the target named is T6, Biotin sY51 PSGL-1(42-62) peptide. Nature of the experiment: ELISA, immobilized biotin peptide. An outline of the steps:
as §1
B1 came in with a concentration giving a half-maximal response (EC50) of 0.705 nM.

In turn, B5 gave an EC50 of 1.22 nM.

B7 registered an EC50 of 0.659 nM.

Turning to B8, a half-maximal response (EC50) required 0.814 nM.

Regarding B9, the EC50 worked out at 0.547 nM.

A further experiment addresses T4, Biotin PSGL-1(42-62) peptide, unmodified. Nature of the experiment: ELISA, immobilized biotin peptide. Put shortly: as §1
For B1, the 50% effective concentration (EC50) was 0.702 nM.

On to B5, for which the response was half-maximal at 0.844 nM (EC50).

Regarding B7, the EC50 came to 0.694 nM.

Take B8: the EC50 was determined as 0.695 nM.

On to B9, for which the response was half-maximal at 0.539 nM (EC50).

For another experiment, the target named is PSGL-1(ECD)-hFc1 I121A protein (Sino Biological) (human). Nature of the experiment: ELISA, plate-bound peptide or protein. How it is done:
(§2) A typical ELISA experiment involved binding of a single concentration or serially diluted mAb in assay buffer (3% BSA in PBS containing 0.05% Tween®20, pH 7.4) onto BSA blocked high binding microtiter plate half-wells (Corning Cat. #3690), which contained PSGL-1 protein or streptavidin-immobilized biotin peptide. After incubation for 45 min. at 37° C., the plate was washed 3 times with wash buffer (PBS containing 0.05% Tween®20, pH 7.4), and an appropriate HRP-conjugated secondary antibody added (25 ul/well) (HRP goat anti-mouse or anti-human IgG). After 45 min. incubation at 37° C., the plate was washed and antibody bound to plate-immobilized target was determined at A450 nm using HRP substrate (3,3′5,5′-tetramethylbenzidine (TMB)). For each antibody, duplicate values were averaged and assay background subtracted.
In the case of B2, the EC50 amounted to 1.54 nM.

In turn, B3 gave an EC50 of 0.97 nM.

For B4, the midpoint of the response, the EC50, lay at 0.53 nM.

In the case of B6, the EC50 was 0.51 nM.

The next experiment concerns the target PSGL-1(ECD)-hFc1 M119A protein (Sino Biological) (human). Nature of the experiment: ELISA, plate-bound peptide or protein. How it is done:
as §2
As for B2, the EC50 was 0.87 nM.

With B3, the EC50 is 0.86 nM.

B4 came in with an EC50 of 0.51 nM.

Molecule B6 displayed an EC50 of 0.46 nM.

A further experiment deals with PSGL-1(ECD)-hFc1 S116A protein (Sino Biological) (human). Nature of the experiment: ELISA, plate-bound peptide or protein. Here is the method: as §2
Take B2: the midpoint of the response, the EC50, lay at 0.8 nM.

As to B3, it took 0.98 nM to reach a half-maximal effect (EC50).

B4 came in with a concentration giving a half-maximal response (EC50) of 0.55 nM.

B6: it took 0.58 nM to reach a half-maximal effect (EC50).

Source of the values: US20220396632A1 (VERSEAU THERAPEUTICS, published 2022).
